Data on one molecule can be found in publication PMC12205646.

The test deals with Hsp90-CYF61 homodimer (used as WT in the ATPase assays) (S. cerevisiae) (UniProt P02829).
Chain of UniProt P02829 (P02829 whole entry): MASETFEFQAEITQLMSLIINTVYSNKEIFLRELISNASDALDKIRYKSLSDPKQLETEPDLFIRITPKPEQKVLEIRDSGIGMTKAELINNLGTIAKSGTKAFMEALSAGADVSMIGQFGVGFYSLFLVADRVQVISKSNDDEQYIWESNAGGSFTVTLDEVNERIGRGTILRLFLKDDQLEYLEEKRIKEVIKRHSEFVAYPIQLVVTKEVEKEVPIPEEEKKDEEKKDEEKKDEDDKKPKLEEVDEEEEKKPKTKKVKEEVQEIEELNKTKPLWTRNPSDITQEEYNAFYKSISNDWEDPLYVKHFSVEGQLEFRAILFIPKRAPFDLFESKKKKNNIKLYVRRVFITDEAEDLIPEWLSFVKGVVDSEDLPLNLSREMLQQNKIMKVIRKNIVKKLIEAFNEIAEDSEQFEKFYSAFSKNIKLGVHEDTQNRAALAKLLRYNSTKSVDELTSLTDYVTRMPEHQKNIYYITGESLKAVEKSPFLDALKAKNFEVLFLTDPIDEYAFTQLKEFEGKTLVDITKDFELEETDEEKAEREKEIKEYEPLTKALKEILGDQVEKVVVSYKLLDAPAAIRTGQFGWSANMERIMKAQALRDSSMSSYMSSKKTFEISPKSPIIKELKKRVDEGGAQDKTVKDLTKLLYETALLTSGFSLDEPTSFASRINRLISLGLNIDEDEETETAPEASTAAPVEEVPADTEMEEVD

B1: Aha1 (activator of Hsp90 activity 1) cochaperone (natural protein)
chain: MVVNNPNNWHWVDKNCIGWAKEYFKQKLVGVEAGSVKDKKYAKIKSVSSIEGDCEVNQRKGKVISLFDLKITVLIEGHVDSKDGSALPFEGSINVPEVAFDSEASSYQFDISIFKETSELSEAKPLIRSELLPKLRQIFQQFGKDLLATHGNDIQVPESQVKSNYTRGNQKSSFTEIKDSASKPKKNALPSSTSTSAPVSSTNKVPQNGSGNSTSIYLEPTFNVPSSELYETFLDKQRILAWTRSAQFFNSGPKLETKEKFELFGGNVISELVSCEKDKKLVFHWKLKDWSAPFNSTIEMTFHESQEFHETKLQVKWTGIPVGEEDRVRANFEEYYVRSIKLTFGFGAVL
As for B1, the stimulation of Hsp90 ATPase activity by Aha1 (ATP-regenerating coupled enzyme assay; 6 uM Aha1, 2 uM Hsp90 dimer) was found to be 20 fold.
